Assay results reported in the DeepSol protein solubility set.

Experiment: soluble on expression in E. coli; label from the status in PepcDB or PDB records

Sequence | soluble on expression in E. coli
MTRSRLKIDRHGKEEDAMDLIDTHQHLILRGKLGYAWTRGEPSLAGSFTRADYAALVEGSGVIGTIFMETGVDDGDYRAEARLVAGMVGEGTLPMFGQIASCRPETDQGFDAWLEECRHLKVVGFRRILQVMPDDTSRAENYRRNVRKIGKAGWPVDLCFHSRQLAIAAELVRACPDVRFMLDHCGTPDIAGNDFPAWSERMADLASLPNLFVKLSGVTAYCAPGQVTLESVRPYVETVLKLFGPARMVWGGDWPVVDLGSGLPEWIAMTREFLSTLSPDEQASIGHGNARRFYLATLEHHHHHH | not soluble
MTRTPFSRRRFLQLSGGLALAGVSLPLWAHDMADMAGGDAHPALRLPEPYKIKLAINKSAVCLAPVAVAEQQKIFSKYNLDVEFVNFGNSTDVLLEAIATGKADAGVGMALRWLKALEQGFDVKLTAGTHGGCLNLLTAKDSPFGGLESLKGQTIGVTDMAGPDKNFFAILLKRHGIDPISDVQWKVYPADLLSVALDKREIAAISGSEPFSYRLLETGKYQLIASNMTGDYANLSCCVLGVSGSLARDHKPAAAALTQAILEAHSYAAAHPESVAQSFLAHALNTSEAEVSGILHGQGHGHHAVGEAFVKELTQYAVDLQRVQVIKPGTDPHQFAESIYANVFA | not soluble
MTRYLDISLGIVRDYYEAAPVKVVFVKDHPRLPTPGGIINARRGDEVELPRWQARMLREKGYVEYKEKIVDIDYVNLVHYHEVKKSAANSLLGVPSDFYLRVKELVEDLDRRIRENPGYMLFQDRENVERAIMQISERRLVKMMRLVLSGGGEEVRERLTVEENLVYSMAEEVVKGWKEYVKSLVGRR | not soluble
MTSITVQLRSGLDGVYFALKQMSGLRAKLLLVGNENPVPTVLPASQRGTPFPGGNTMTQASLIRLSELNNDAQYNLNDTSMYNPVGAAAYGVNGDKIGTVRDALVEPETGRIRYFLVDVGGWFSSKEVLVPVGYGRVDDSGVYFDSLTKDQVKDMSEYRADQAYSSEMMDTDERVLRGNQSQEEYHQRAYQTPDRLQLLEERLVVNKDRFKAGSVQIGKRIETRQETVSVPLQREEVVIERHAVTDGRAVEGAVLGEGHQTMSVDLEAERANISKQAYVTEEVSVGKRAVTETQQVTETVGREVLDVNQTGDVRTTEGTALTDDTTKRNILEHHHHHH | soluble
MTSKIALFDQTLIASLLQPLSLNQPDFKAYKTKVKLKISEQRNETSGEKELKFEISRSDDFEFLFSETLNNEKYQILARDHDLTVDFDAFPKVIIQHLLCKNIVKNLEEDGEVDARKKAGYHSIADPGKPTEINIILDAEKNFCSFELFSKTPISKGKIFSIKLHAVRGDHLISHLLKICSSQAVKLSTFYKSADELASLRQKCGDLEKQVEKLSGVKEEFEEMSEKFKELEDEVELVKEERENIRLLVEDKEDEVADLKQDTESLQKQLEENQEELEIVGNMLREEQGKVDQLQKRNVAHQKEIGKLRAELGTAQRNLEKADQLLKRNSQQQNQQSLDMRKLGELEADLKEKDSMVESLTETIGILRKELENEKLKAAENMDSFEKLSMENENLKEKIAHYRAQRFSPAPSGLPGLQTGLTNRLTPSFKPVLGPHTPYGANLNSRTPFRDNTTLNFQNSTIATPHAFRFNSQLIADETTGSSVTNTPPAQR | not soluble
MTSPVPRLIEQFERGLDAPICLTWELTYACNLACVHCLSSSGKRDPGELSTRQCKDIIDELERMQVFYVNIGGGEPTVRPDFWELVDYATAHHVGVKFSTNGVRITPEVATRLAATDYVDVQISLDGATAEVNDAIRGTGSFDMAVRALQNLAAAGFAGVKISVVITRRNVAQLDEFATLASRYGATLRITRLRPSGRGTDVWADLHPTADQQVQLYDWLVSKGERVLTGDSFFHLAPLGQSGALAGLNMCGAGRVVCLIDPVGDVYACPFAIHDHFLAGNVLSDGGFQNVWKNSSLFRELREPQSAGACGSCGHYDSCRGGCMAAKFFTGLPLDGPDPECVQGHSEPALARERHLPRPRADHSRGRRVSKPVPLTLSMRPPKRPCNESPV | not soluble
MTSRDQGINSELSNRTIQFKEKIHNGIHTEYITDQKHSNNKDREKKYRDGDKINGPQAHSLDITNERRFADNRTMFTQHIEKQRNVNTLNQNDINNSANNANVRENELTYQFQRWGQNHTVRILESSEGIRLKPSDTLVSDRLHEAQHNDVTAQRWVLTEQDERQGQRHQPHEEQENEGKFENDQKDES | soluble
MTSRRLEESMGAVQMGLVNMFKGFQSKVLPPLSPKVVTEEEVNRMLTPSEFLKEMSLTTEQRLAKTRLMCRPQIIELLDMGETTHQKFSGIDLDQALFQPFPSEIIFQNYTPCEVYEVPLILRNNDKIPRLVKVVEESSPYFKVISPKDIGHKVAPGVPSIFRILFTPEENKDYAHTLTCVTEREKFIVPIKARGARAILDFPDKLNFSTCPVKYSTQKILLVRNIGNKNAVFHIKTCRPFSIEPAIGTLNVGESMQLEVEFEPQSVGDHSGRLIVCYDTGEKVFVSLYGAAIDMNIRLDKNSLTIEKTYISMANQRTITIHNRSNIIAHFLWKVFATQQEEDREKYRACDDLIKEEKDETDEFFEECITDPLLREHLSVLSRTFANQRRLVQGDSKLFFNNVFTVEPLEGDVWPNSSAEITVYFNPLEAKLYQQTIYCDILGREIRLPLRIKGEGMGPKIHFNFELLDIGKVFTGSAHCYEAILYNKGSIDALFNMTPPTSALGACFVFSPKEGIIEPSGVQAIQISFSSIILGNFEEEFLVNVNGSPEPVKLTIRGCVIGPTFHFNVPALHFGDVSFGFPHTLICSLNNTSLIPMTYKLRIPGDGLGHKSISYCEQHVDYKRPSWTKEEISSMKPKEFTISPDCGTIRPQGFAAIRVTLCSNTVQKYELALVVDVEGIGEEVLALLITARYCSPACSSPESPPSLQ | soluble
MTSSNKLHEVDKDQQSAFDITGRYQTISAHPTKEFSKPTLAAGAVLWRHSSTITENPAVEFAVIHRPHYDDWSLAKGKVDPGESLPVTAEREIREETGHHVHLGKLLGKVSYPVGERTKVVYYWIAQVHDEAFEENNEVDELRWLPYTEARELLSYDVDRLVLDKAYKRLALPTTTRVILVRHAKAHQRHNWAGNDSIRPLEKKGQRQADLLGPMLAAYGPTSIHSATPARCQQTAAPLSELTGLEVVVDDRFDDEAWLSRMTVAQKACEELIATPGTHVVVSQGLFIPDAIAWLSAQGRLPLETIEAKKASAWVLSFHEGELTGADYLVSPLGVK | not soluble
MTSTGPETSETPGATTQRHGFGIDVGGSGIKGGIVDLDTGQLIGDRIKLLTPQPATPLAVAKTIAEVVNGFGWRGPLGVTYPGVVTHGVVRTAANVDKSWIGTNARDTIGAELGGQQVTILNDADAAGLAETRYGAGKNNPGLVVLLTFGTGIGSAVIHNGTLIPNTEFGHLEVGGKEAEERAASSVKEKNDWTYPKWAKQVIRVLIAIENAIWPDLFIAGGGISRKADKWVPLLENRTPVVPAALQNTAGIVGAAMASVADTTH | not soluble
MTTAGYYAAVDWGTSSFRLWIIGEDGAVLAERRSAEGMTTAAKTGFHTILDGHLAAVSAPAHLPIIICGMAGARQGWKEAGYIETPAALAEIAGRATAIPDVDRDIRILPGLAQRDRRHPDVMRGEETQLLGAAAHLGAGSHLVCMPGTHSKWVRLADDRVEGFSTFMTGELFDTIARHTILSHAVAEADTFAAGSAAFTDAVSRTRENPALATNLLFSVRAGQLLHGTAAADARAQLSGTLIGLEIAGALAGSGSVDGVCLVGSGGLGTLYRTALESQGLNVRAVDADEAVRAGLSAAARAIWPL | not soluble
MTTAIGKKTTKLEPFKMERGVKYRDAAKTSVIQVRNIDPDQELLKKPEWMKIKLPTNSAKIDSIKYGMRRHGLHSVCEEASCPNLHECFNHGTATFMIMGAICTRRCPFCDVAHGKPLPLDPYEPRKVAETVQDMKLKYVVITSVDRDDLADRGAAHFAATVREIKALNPECKVEILVPDFRGRVEQAVAILKQNPPDVFNHNLENVPRLYREIRPGADYKWSLELLKIFKQEFPNIPTKSGLMVGLGETNEEILAVMQDLRDHGVTMLTVGQYLQPSRHHLRVERYVPPAEFEMFRSEAEKMGFEHAACGPFVRSSYHADLQAKGELVK | not soluble
MTTDQIAAFCLQLPGAREDLKWGSNRVFSVAGNKMFAILDFVDKDGGLAFKVGSELFLGYVDRPGIRPAPYLARAHWIVMARPYPMKAAELREALVRSHQLVVARLPKRQRLGLVLDA | not soluble
MTTETQADRTQQAVGRIIGSIGVVTTQTTGRHQGILTSWVSQASFTPPGIMLAIPGEFDAYGLAGQNKAFVLNLLQEGRSVRRHFDHQPLPKDGDNPFSRLEHYSTQNGCLILAEALAYLECLVQSWSNIGDHVLVYATVQAGQVLQPNGITLEHHHHHH | soluble
MTTHEKVILVGVETEKNYQTFSASMEELANLTETANGEVVFVLTQKRPQVDRQTVIGKGKLEELIQLTDAYEADLVIFNHELTPRQNQLLSEALAVRVIDRVQLILDIFALRARSKEGKLQVELAQLDYLLPRLAGQGKQLSRLGGGIGTRGPGETKLESDRRHIRNKILGIRRELKEVTAHRERSRQKRQNSELFQIGLIGYTNAGKSTILNMLTTAGTYSEDQLFATLDPLTKKWQLPQGMEVTLTDTVGFIQDLPTQLIEAFQSTLEESRTMDLLLHVVDASAPDRLQHERTVQTLMKELALENIPCLTVYNKRDQVDSKEFVPTLFPNVLISTKISEDKERLVQAIRAQMMELLEPYQLEISPTDGQLLSELRRMTLMISEEYAENENRYIVKGFAKKKSKWLAESEKEAAALEHHHHHH | not soluble
MTTHHIKKSYSPNTKLSDLICENYDLLLVITRFGISLGFGEKSIREVCEDNKVNTNTLMAVINALINRPEHPSETVLSDLSAPSLINYLRKSHNYFLEFRLPLLRQDLLAALSNCPSEVVFVIRQFYDEYVEEVRKHMSYEEKTVFPYVEKLLGGKLDKRSHYRIDIFSKRHDQIELKISELKNLLIKYYPTSSGYELNSVLHDIFSSEDDLSAHNFVEDHLFVPLIRKIEKENGL | not soluble
MTTIPVTSIAAEPAVSCSTCAACCCQLEVMLITDTGVPERFIDTDDWGGEVMRRLDDGWCAALDRDSMRCSIYELRPLICREFELGEADCLSERRGIATAYRLEHHHHHH | not soluble
MTTLLIVPGFGGSGPLHWQSWIAQKYTSSLWVNDLPLLEPKIHIWADAISRAMDNIEGKILILAHSFGCLASSLAIARHPQRVVAAILVAPASPESFSENGHILPEHDDTPTIRNLLPKQTLGICGLVIASENDPWMPFNQAASLAKSFGLPTINLGLSGHINVDSGHGQWPLIDVLVGNFLFQNENVPPIPSIKTAQDKTTPHLFPNGILEHHHHHH | not soluble
MTTLSMENFAQLFEESLTLHDMRVGEVITAEVVAVDSNFVTVNAGLKSESLIPAEEFKNDQGVVEVAIGDFVTVAIDALENGFGETKLSREKAKRMAAWVELEEALEAGTILSGMISGKVKGGLTVMVNGIRAFLPGSLVDVRPVKDTTPYENKQIEFKVIKLDRKRNNVVVSRRSVLEETLGEERKALLETLKEGAVIKGIVKNITDYGAFVDLGGIDGLLHITDLAWRRVKHPSEVLAVGDEVEAKVLKFDQEKNRVSLGLKQLGEDPWVGLSRRYPSGTRLFGKVTNLTDYGAFVEIEQGIEGLVHVSEMDWTNKNVHPSKVVQVGDEVEVMILEIDEDRRRISLGMKQCLANPWNEFADNFHKGDKLKGAIKSITDFGVFVGLPGGIDGLVHLSDLSWNEAGEEAVRKFKKGDEVEAVVLSIDVEKERISLGIKQLEGDPFNNFVAMNDKGALVKGTVKSVDAKGAVIALDADVEGYLRASELSRDRVEDARSVLKDGDAVEAVIVAVDRKSRNISLSIKAKDAQEDNAALKSLAVDSASAGTTNLGALLKAKLSGSNE | soluble
